2 molecules from article PMC11829585 can be followed below.

For this data set, the target named is T1, HuNoV GII.2 VLP (Human norovirus GII.2, UniProt A0A291L9K1 1-542).
T1 sequence: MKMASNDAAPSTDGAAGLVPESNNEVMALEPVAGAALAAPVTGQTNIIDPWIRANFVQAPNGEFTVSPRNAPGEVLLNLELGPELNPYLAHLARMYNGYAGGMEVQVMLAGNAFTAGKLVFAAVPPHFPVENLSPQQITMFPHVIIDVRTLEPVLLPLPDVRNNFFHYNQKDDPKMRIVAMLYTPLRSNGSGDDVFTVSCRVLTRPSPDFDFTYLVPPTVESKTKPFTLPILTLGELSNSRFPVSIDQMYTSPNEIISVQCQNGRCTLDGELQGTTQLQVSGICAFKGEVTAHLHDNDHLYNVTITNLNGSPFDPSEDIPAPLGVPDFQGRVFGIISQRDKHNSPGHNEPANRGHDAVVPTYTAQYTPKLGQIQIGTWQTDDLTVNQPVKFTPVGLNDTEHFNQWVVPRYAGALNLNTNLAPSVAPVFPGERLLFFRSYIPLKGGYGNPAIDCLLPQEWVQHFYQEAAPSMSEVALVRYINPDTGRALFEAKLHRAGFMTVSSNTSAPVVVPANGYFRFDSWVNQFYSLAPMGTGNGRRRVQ
In words: dot blot.

AACACGACAACCCTGTGACCAACGAACCACACCAAAGTGGGC (ssDNA) [AP4-2]: the binding result is recorded as “binds”.

For GGAACACGACCCGTCTGTGGCCATCACAGTACAGCATCGTCGTG (ssDNA) [AP17-4], the binding result was “binds”.
